According to article PMC2925043:
Values belong to the substance of their own block, whether it stands above or below them.

Assays:
[1] = molecular target: Drosophila EGFR extracellular region lacking domain V (s-dEGFRΔV) (Drosophila melanogaster) (UniProt P04412)
[2] = molecular target: EGFR (high-affinity site) (Homo sapiens) (UniProt P00533); conditions: cited from earlier work
[3] = molecular target: EGFR (low-affinity site) (Homo sapiens) (UniProt P00533); conditions: cited from earlier work
[4] = molecular target: Drosophila EGFR extracellular region (s-dEGFR) with C-terminal His tag and AviTag, biotinylated (Drosophila melanogaster) (UniProt P04412); assay: fluorescent ligand binding assay on plates
[5] = molecular target: dimerization-defective s-dEGFR variant (s-dEGFR^dim-arm), biotinylated (Drosophila melanogaster) (UniProt P04412); assay: fluorescent ligand binding assay on plates

- Kd [1]: 4370 nM
Substance: Spitz_(EGFΔC), variant of SpitzEGF with a C-terminal truncation of six amino acids (ligand)

- Kd [1]: 368 nM
Substance: EGF-like domain of Spitz (SpitzEGF, residues 48-105) (ligand)

Substance: EGF (from UniProt P01133)
- Kd [2]: 0.3 nM
- Kd [3]: 2 nM

- KD of the high-affinity site (fit with two independent classes of site) [4]: 4.7 nM
- Kd [4]: 49.5 nM
- Kd [5]: 920 nM
Substance: SpitzEGF labeled with Alexa Fluor-488 (ligand)
